{
  "source": "patent US20050095655A1",
  "about": "“Solution-based methods for detecting MHC-binding peptides” (priority 2003, published 2005)",
  "key": {"[1]": {"target": "monomer HLA-A*0201/CMVpp65 (Homo sapiens, UniProt P04439, D140Y/D185E/D98H/E176V/E277Q/G131W/G231S/I119V/I121R/I166T/I218V/L300P/L318F/N151K/N90K/P208A/P217A/Q86G/Q94H/R138H/R169H/T345S)", "assay": "Exchange of fluorescent tracer peptide on template monomer, no competitor", "settings": "after 120 h"}, "[2]": {"target": "monomer HLA-A*0201/HIVpol (Homo sapiens, UniProt P04439, D140Y/D185E/D98H/E176V/E277Q/G131W/G231S/I119V/I121R/I166T/I218V/L300P/L318F/N151K/N90K/P208A/P217A/Q86G/Q94H/R138H/R169H/T345S)", "assay": "Exchange of fluorescent tracer peptide on template monomer, no competitor"}},
  "data": [
    {"substance": "FLPSDC(FITC)FPSV [HBVc-FITC]", "values": [
      {"measurement": "% exchange", "setting": "[1]", "value": "about 80%"},
      {"measurement": "maximum percentage of exchange", "setting": "[2]", "value": 40, "unit": "%"}
    ]}
  ]
}
